Read-outs that look alike come from different tables or passages of the source.
Tests used:
DRB1*15:01 [1] = settings: modification not given
DRB1*07:01 [2] = settings: modification not given
DRB1*15:01 [3] = settings: modification not given; remark: listed apart in the source
DRB1*07:01 [4] = settings: modification not given; remark: listed apart in the source
DRB1*15:01 [5] = settings: modification not given; remark: listed apart in the source
DRB1*07:01 [6] = settings: modification not given; remark: listed apart in the source
DRB1*15:01 [7] = settings: modification not given; remark: listed apart in the source
DRB01*11:01 [8] = settings: modification not given
DRB01*04:04 [9] = settings: modification not given
DRB01*07:01 [10] = settings: modification not given
DRB1*07:01 [11] = settings: modification not given; remark: listed apart in the source
[12] = target: SARS-CoV-2 peptide on HLA-A*24:02 (human); assay: barcoded tetramer library on ex vivo CD8+ T cells, single-cell sequencing; T cell clone or line; settings: chains Valpha:Vbeta
DRB1*15:01 [13] = settings: modification not given; remark: listed apart in the source
DRB1*07:01 [14] = settings: modification not given; remark: listed apart in the source
DRB1*07:01 [15] = settings: modification not given; remark: listed apart in the source
DRB1*07:01 [16] = settings: modification not given; remark: listed apart in the source
DRB1*07:01 [17] = settings: modification not given; remark: listed apart in the source
DRB1*07:01 [18] = settings: modification not given; remark: listed apart in the source
DRB1*15:01 [19] = settings: modification not given; remark: listed apart in the source
DRB1*15:01 [20] = settings: modification not given; remark: listed apart in the source
DRB1*07:01 [21] = settings: modification not given; remark: listed apart in the source
DRB1*15:01 [22] = settings: modification not given; remark: listed apart in the source
DRB1*07:01 [23] = settings: modification not given; remark: listed apart in the source
DRB1*15:01 [24] = settings: modification not given; remark: listed apart in the source
DRB1*07:01 [25] = settings: modification not given; remark: listed apart in the source
DRB1*15:01 [26] = settings: modification not given; remark: listed apart in the source
DRB01*04:04 [27] = settings: chains peptide; modification not given
DRB01*15:01 [28] = settings: chains peptide; modification not given
DRB01*11:01 [29] = settings: chains peptide; modification not given
DRB01*07:01 [30] = settings: chains peptide; modification not given
DRB1*15:01 [31] = settings: modification not given; remark: listed apart in the source
DRB01*15:01 [32] = settings: modification not given
DRB1*07:01 [33] = settings: modification not given; remark: listed apart in the source
DRB1*07:01 [34] = settings: modification not given; remark: listed apart in the source
DRB1*15:01 [35] = settings: modification not given; remark: listed apart in the source
DRB1*15:01 [36] = settings: modification not given; remark: listed apart in the source
DRB1*07:01 [37] = settings: modification not given; remark: listed apart in the source

B1: … (position 295) (peptide)
chain: PLSETKCTLKSFTVE
Q: With B1 as the binder, how does the IC50 (DRB1*15:01 [1]) read?
A: 15.5 µM

B2: … (position 936) (peptide)
chain: DSLSSTASALGKLQD
Q: B2 was tested. Which IC50 (DRB1*07:01 [2]) did it give?
A: 1020 nM

Q: And the IC50 (DRB1*15:01 [3])?
A: 10.9 µM

B3: … (position 679) (peptide)
chain: NSPRRARSVASQSII
Q: Which IC50 (DRB1*07:01 [4]) does the source give for B3 here?
A: 206 nM

Q: What about the IC50 (DRB1*15:01 [5]) of the same binder?
A: 25.5 µM

B4: … (position 43) (peptide)
chain: FRSSVLHSTQDLFLP
Q: With B4 as the binder, how does the IC50 (DRB1*07:01 [6]) read?
A: 85 nM

Q: And the IC50 (DRB1*15:01 [7])?
A: 5.57 µM

B5: Positive Control … (peptide)
chain: PKYVKQNTLKLAT
Q: Which IC50 (DRB01*11:01 [8]) does the source give for B5 here?
A: 257 nM

Q: What about the IC50 (DRB01*04:04 [9]) of the same binder?
A: 5.31 µM

Q: What about the IC50 (DRB01*07:01 [10]) of the same binder?
A: 2320 nM

B6: … (position 688) (peptide)
chain: ASQSIIAYTMSLGAE
Q: B6 was tested. Which IC50 (DRB1*07:01 [11]) did it give?
A: 124 nM

B7: TCR_76 (protein)
chain 1: QQQVKQSPQSLIVQKGGISIINCAYENTAFDYFPWYQQFPGKGPALLIAIRPDVSEKKEGRFTISFNKSAKQFSLHIMDSQPGDSATYFCAASNRGGSEKLVFGKGTKLTVNP
chain 2: NAGVTQTPKFQVLKTGQSMTLQCAQDMNHEYMSWYRQDPGMGLRLIHYSVGAGITDQGEVPNGYNVSRSTTEDFPLRLLSAAPSQTSVYFCASSYHAGDRGFGYTFGSGTRLTVV
Q: Which No. of Cells [12] does the source give for B7 here?
A: 2 cells

B8: … (position 167) (peptide)
chain: TFEYVSQPFLMDLEG
Q: For B8, which IC50 (DRB1*15:01 [13]) is on record?
A: 7.67 µM

Q: And the IC50 (DRB1*07:01 [14])?
A: 442 nM

B9: … (position 897) (peptide)
chain: PFAMQMAYRFNGIGV
Q: For B9, which IC50 (DRB1*07:01 [15]) is on record?
A: 158 nM

B10: TCR_101 (protein)
chain 1: EDQVTQSPEALRLQEGESSSLNCSYTVSGLRGLFWYRQDPGKGPEFLFTLYSAGEEKEKERLKATLTKKESFLHITAPKPEDSATYLCAVHLNDYKLSFGAGTTVTVRA
chain 2: NAGVMQNPRHLVRRRGQEARLRCSPVKGHSHVYWYRQLPEEGLKFMVYLQKENIIDESGMPKERFSAEFPKEGPSILRIQQVVRGDSAAYFCASSRPSGQGNNGYTFGSGTRLTVV
Q: B10 was tested. Which No. of Cells [12] did it give?
A: 2 cells

B11: … (position 26) (peptide)
chain: PAYTNSFTRGVYYPD
Q: B11 was tested. Which IC50 (DRB1*07:01 [16]) did it give?
A: 153 nM

B12: … (position 125) (peptide)
chain: NVVIKVCEFQFCNDP
Q: For B12, which IC50 (DRB1*07:01 [17]) is on record?
A: 6.61 µM

B13: … (position 307) (peptide)
chain: TVEKGIYQTSNFRVQ
Q: For B13, which IC50 (DRB1*07:01 [18]) is on record?
A: 316 nM

Q: What about the IC50 (DRB1*15:01 [19]) of the same binder?
A: 378 nM

B14: … (position 853) (peptide)
chain: QKFNGLTVLPPLLTD
Q: How did the IC50 (DRB1*15:01 [20]) turn out when B14 was run?
A: 1710 nM

B15: … (position 557) (peptide)
chain: KKFLPFQQFGRDIAD
Q: B15 was tested. Which IC50 (DRB1*07:01 [21]) did it give?
A: 1630 nM

Q: And the IC50 (DRB1*15:01 [22])?
A: 6.44 µM

B16: … (position 632) (peptide)
chain: TWRVYSTGSNVFQTR
Q: For B16, which IC50 (DRB1*07:01 [23]) is on record?
A: 220 nM

Q: What about the IC50 (DRB1*15:01 [24]) of the same binder?
A: 1950 nM

B17: TCR_109 (protein)
chain 1: AQKITQTQPGMFVQEKEAVTLDCTYDTSDQSYGLFWYKQPSSGEMIFLIYQGSYDEQNATEGRYSLNFQKARKSANLVISASQLGDSAMYFCAMRDSNSNSGYALNFGKGTSLLVTP
chain 2: DAEITQSPRHKITETGRQVTLACHQTWNHNNMFWYRQDLGHGLRLIHYSYGVQDTNKGEVSDGYSVSRSNTEDLPLTLESAASSQTSVYFCASSDGHQGLQETQYFGPGTRLLVL
Q: Which No. of Cells [12] does the source give for B17 here?
A: 2 cells

B18: … (position 9) (peptide)
chain: PLVSSQCVNLTTRTQ
Q: For B18, which IC50 (DRB1*07:01 [25]) is on record?
A: 838 nM

B19: … (position 734) (peptide)
chain: TSVDCTMYICGDSTE
Q: For B19, which IC50 (DRB1*15:01 [26]) is on record?
A: 36.7 µM

B20: SEQ ID NO 307 (peptide)
chain: RGHLRIAGHHLGRCDIKDLPKEI
Q: With B20 as the binder, how does the IC50 (DRB01*04:04 [27]) read?
A: 1730 nM

Q: And the IC50 (DRB01*15:01 [28])?
A: 5.09 µM

Q: What about the IC50 (DRB01*11:01 [29]) of the same binder?
A: 561 nM

Q: What about the IC50 (DRB01*07:01 [30]) of the same binder?
A: 10.2 µM

B21: … (position 424) (peptide)
chain: KLPDDFTGCVIAWNS
Q: How did the IC50 (DRB1*15:01 [31]) turn out when B21 was run?
A: 2060 nM

B22: Positive Control … (peptide)
chain: TLLALHRSYLTPGDS
Q: Which IC50 (DRB01*15:01 [32]) does the source give for B22 here?
A: 257 nM

B23: … (position 240) (peptide)
chain: TLLALHRSYLTPGDS
Q: B23 was tested. Which IC50 (DRB1*07:01 [33]) did it give?
A: 298 nM

B24: … (position 89) (peptide)
chain: GVYFASTEKSNIIRG
Q: How did the IC50 (DRB1*07:01 [34]) turn out when B24 was run?
A: 99 nM

Q: What about the IC50 (DRB1*15:01 [35]) of the same binder?
A: 15.5 µM

B25: … (position 317) (peptide)
chain: NFRVQPTESIVRFPN
Q: With B25 as the binder, how does the IC50 (DRB1*15:01 [36]) read?
A: 1020 nM

Q: And the IC50 (DRB1*07:01 [37])?
A: 1620 nM

Reference: patent US20220033460A1, “IDENTIFICATION AND USE OF T CELL EPITOPES IN DESIGNING DIAGNOSTIC AND THERAPEUTIC APPROACHES FOR COVID-19” (priority 2020, published 2022)
